# Results published in paper doi:10.1101/495820.
# B1: 40 bp random-sequence dsDNA (dsDNA)
# DNA 1: TTAGTTGTTCGTAGTGCTCGTCTGGCTCTGGATTACCCGC
# DNA 2: GCGGGTAATCCAGAGCCAGACGAGCACTACGAACAACTAA
# Biological target: T1, SmcH-CC100 (Bacillus subtilis, UniProt P51834 400-774)
# T1 sequence: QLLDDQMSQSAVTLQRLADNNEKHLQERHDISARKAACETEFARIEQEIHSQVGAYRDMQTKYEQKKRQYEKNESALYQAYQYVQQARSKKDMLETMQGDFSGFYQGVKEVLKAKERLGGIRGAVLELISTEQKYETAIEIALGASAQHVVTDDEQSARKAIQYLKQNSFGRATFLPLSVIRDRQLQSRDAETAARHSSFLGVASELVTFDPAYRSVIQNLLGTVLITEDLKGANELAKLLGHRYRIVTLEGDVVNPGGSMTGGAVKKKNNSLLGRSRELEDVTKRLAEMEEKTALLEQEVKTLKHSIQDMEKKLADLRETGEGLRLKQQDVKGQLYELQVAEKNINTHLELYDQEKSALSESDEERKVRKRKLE
# Assay: fluorescence anisotropy
binder,measurement,value
B1,binding result,binds
